Experimental data taken from patent US20180194851A1 (Pfizer, published 2018).

What was measured:
[1] = target: T1, Recombinant human 4-1BB/Fc Chimera (R&D Systems #838-4B) (human, UniProt Q07011 24-186); assay: ELISA on directly coated human 4-1BB/Fc
T1 construct: Bought protein; also called Human 4-1BB IgG1Fc chimera; not shown: Factor Xa-cleavable junction, human IgG1 Fc and 6xHistidine tag of the bought chimera

human 4-1BB on cells [2] = target: T2, human 4-1BB on cells (human, UniProt Q07011 18-255); assay: FACS on HEK293 cells expressing human 4-1BB
T2 construct: Expressed on stably transfected HEK293/HEK293T cells, transduced 300-19 cells or PHA stimulated human PBMC; also called h41BB; hu4-1BB

[3] = target: T3, human 4-1BB (recombinant antigen, construct not stated) (human, UniProt Q07011 24-186); assay: SPR (Biacore 3000), Fab analyte on amine-coupled human 4-1BB
T3 construct: It may be the 4-1BB/Fc chimera; also called CD137/HUMAN 4-1BB; unlabeled human 4-1BB

[4] = target: T3, human 4-1BB (recombinant antigen, …); assay: solution equilibrium titration (SET), MSD electrochemiluminescence
human 4-1BB on cells [5] = target: T2, human 4-1BB on cells; assay: FACS on transfected cells
Hu41BB N&E.5 [6] = target: T4, Hu41BB N&E.5 (human, UniProt Q07011 18-255); assay: FACS dose response on 300-19 cell pools
T4 construct: Human-to-dog mutant of the human 4-1BB extracellular domain, expressed on transduced 300-19 cells; also called 4-1BB Mutant N&E.5
T4 chain: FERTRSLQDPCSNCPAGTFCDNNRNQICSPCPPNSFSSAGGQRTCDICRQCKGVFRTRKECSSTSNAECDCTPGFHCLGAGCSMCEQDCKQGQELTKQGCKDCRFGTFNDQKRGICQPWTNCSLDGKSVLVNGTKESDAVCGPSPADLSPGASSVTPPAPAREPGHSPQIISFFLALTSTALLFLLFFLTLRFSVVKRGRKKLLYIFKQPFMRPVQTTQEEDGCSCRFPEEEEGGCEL

CD40 on 300.19 cells = target: T5, CD40 on 300.19 cells (UniProt P25942 21-277, limits assumed); assay: FACS on 300.19 cells expressing CD40
T5 construct: whole, on cells; also called TNFRSF5; 300.19 CD40

OX-40 on 300.19 cells = target: T6, OX-40 on 300.19 cells (UniProt P43489 29-277, limits assumed); assay: FACS on 300.19 cells expressing OX-40
T6 construct: whole, on cells; also called CD134; TNFRSF4
T6 sequence (looked up): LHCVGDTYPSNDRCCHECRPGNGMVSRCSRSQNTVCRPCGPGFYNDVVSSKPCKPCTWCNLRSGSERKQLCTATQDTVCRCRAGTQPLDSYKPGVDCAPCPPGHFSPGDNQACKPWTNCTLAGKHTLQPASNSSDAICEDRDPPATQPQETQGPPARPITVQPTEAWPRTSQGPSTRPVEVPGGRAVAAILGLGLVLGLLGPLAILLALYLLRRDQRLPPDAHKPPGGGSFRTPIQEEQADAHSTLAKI

[7] = target: T1, Recombinant human 4-1BB/Fc Chimera (R&D …); assay: ELISA on coated human 4-1BB IgG1Fc chimera
[8] = target: T1, Recombinant human 4-1BB/Fc Chimera (R&D …); assay: ELISA on directly coated human 4-1BB/Fc, IgG1
human 4-1BB on cells [9] = target: T2, human 4-1BB on cells; assay: FACS on HEK293T cells expressing human 4-1BB, IgG1
Hu41BB N&E = target: T7, Hu41BB N&E (human, UniProt Q07011 18-255); assay: FACS, 100 nM antibody, transduced 300-19 cell pools
T7 construct: Human-to-dog mutant of the human 4-1BB extracellular domain, expressed on transduced 300-19 cells
T7 chain: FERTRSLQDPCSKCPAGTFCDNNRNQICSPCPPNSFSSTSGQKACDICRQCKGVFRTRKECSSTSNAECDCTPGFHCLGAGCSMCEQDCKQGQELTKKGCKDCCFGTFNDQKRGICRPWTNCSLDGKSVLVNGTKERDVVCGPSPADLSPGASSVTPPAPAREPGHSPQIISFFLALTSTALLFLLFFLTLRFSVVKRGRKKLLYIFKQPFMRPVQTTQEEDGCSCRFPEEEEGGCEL

Hu41BB N&E.1 = target: T8, Hu41BB N&E.1 (human, UniProt Q07011 18-255); assay: as above
T8 construct: Human-to-dog mutant of the human 4-1BB extracellular domain, expressed on transduced 300-19 cells
T8 chain: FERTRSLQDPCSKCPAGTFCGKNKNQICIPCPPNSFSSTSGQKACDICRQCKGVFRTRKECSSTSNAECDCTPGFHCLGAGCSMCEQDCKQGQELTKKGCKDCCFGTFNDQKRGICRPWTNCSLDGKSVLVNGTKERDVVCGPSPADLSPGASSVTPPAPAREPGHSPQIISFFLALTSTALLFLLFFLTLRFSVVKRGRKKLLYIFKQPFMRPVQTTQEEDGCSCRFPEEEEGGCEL

Hu41BB N&E.2 = target: T9, Hu41BB N&E.2 (human, UniProt Q07011 18-255); assay: as above
T9 construct: Human-to-dog mutant of the human 4-1BB extracellular domain, expressed on transduced 300-19 cells
T9 chain: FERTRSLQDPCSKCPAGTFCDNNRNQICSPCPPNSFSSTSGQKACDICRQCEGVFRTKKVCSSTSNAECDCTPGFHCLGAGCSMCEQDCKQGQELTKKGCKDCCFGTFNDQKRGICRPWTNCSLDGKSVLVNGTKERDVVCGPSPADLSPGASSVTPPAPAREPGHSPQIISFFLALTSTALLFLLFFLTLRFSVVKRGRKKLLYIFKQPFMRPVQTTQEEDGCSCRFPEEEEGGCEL

Hu41BB N&E.3 = target: T10, Hu41BB N&E.3 (human, UniProt Q07011 18-255); assay: as above
T10 construct: Human-to-dog mutant of the human 4-1BB extracellular domain, expressed on transduced 300-19 cells
T10 chain: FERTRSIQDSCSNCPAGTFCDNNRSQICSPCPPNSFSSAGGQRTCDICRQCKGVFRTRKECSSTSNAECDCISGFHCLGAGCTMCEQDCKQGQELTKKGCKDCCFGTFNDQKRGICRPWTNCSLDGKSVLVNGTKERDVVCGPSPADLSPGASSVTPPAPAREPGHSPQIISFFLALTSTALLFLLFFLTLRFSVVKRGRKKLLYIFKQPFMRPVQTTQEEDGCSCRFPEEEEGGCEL

Hu41BB N&E.4 = target: T11, Hu41BB N&E.4 (human, UniProt Q07011 18-255); assay: as above
T11 construct: Human-to-dog mutant of the human 4-1BB extracellular domain, expressed on transduced 300-19 cells
T11 chain: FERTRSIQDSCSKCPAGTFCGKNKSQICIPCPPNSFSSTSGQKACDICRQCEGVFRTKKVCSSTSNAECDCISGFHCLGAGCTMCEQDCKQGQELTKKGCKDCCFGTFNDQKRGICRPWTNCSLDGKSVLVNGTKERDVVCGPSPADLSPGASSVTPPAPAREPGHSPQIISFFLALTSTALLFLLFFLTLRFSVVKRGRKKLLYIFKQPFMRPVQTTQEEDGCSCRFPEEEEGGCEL

Hu41BB N&E.6 = target: T12, Hu41BB N&E.6 (human, UniProt Q07011 18-255); assay: as above
T12 construct: Human-to-dog mutant of the human 4-1BB extracellular domain, expressed on transduced 300-19 cells
T12 chain: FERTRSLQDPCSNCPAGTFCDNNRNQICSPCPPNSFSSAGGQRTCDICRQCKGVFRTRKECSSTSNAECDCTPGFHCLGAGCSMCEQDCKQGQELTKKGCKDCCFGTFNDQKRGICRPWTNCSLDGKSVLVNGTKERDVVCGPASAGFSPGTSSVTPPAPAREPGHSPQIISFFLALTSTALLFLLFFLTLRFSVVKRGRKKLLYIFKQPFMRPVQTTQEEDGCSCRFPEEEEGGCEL

[10] = target: T13, human 4-1BB extracellular portion, amino acids 24-186 (Fc cleaved off with Factor Xa) (human, UniProt Q07011 24-186); assay: SPR (Biacore 3000), antibody amine-coupled, 4-1BB 24-186 as analyte, 25 C
T13 construct: Made from the R&D Systems 4-1BB/Fc chimera by Factor Xa cleavage; also called recombinant human 4-1BB; the 4-1BB

[11] = target: T1, Recombinant human 4-1BB/Fc Chimera (R&D …); assay: ligand competition ELISA, 4-1BB_IgG1Fc to plate-bound 4-1BBL (competitor 4-1BBL)
human 4-1BB on cells [12] = target: T2, human 4-1BB on cells; assay: FACS dose response, Alexa Fluor 647 labelled antibody on 300-19 cells expressing human 4-1BB
Hu41BB N&E.5 [13] = target: T4, Hu41BB N&E.5; assay: FACS dose response, Alexa Fluor 647 labelled antibody on 300-19 cells expressing mutant N&E.5

T5 sequence (P25942 21-277 limits assumed): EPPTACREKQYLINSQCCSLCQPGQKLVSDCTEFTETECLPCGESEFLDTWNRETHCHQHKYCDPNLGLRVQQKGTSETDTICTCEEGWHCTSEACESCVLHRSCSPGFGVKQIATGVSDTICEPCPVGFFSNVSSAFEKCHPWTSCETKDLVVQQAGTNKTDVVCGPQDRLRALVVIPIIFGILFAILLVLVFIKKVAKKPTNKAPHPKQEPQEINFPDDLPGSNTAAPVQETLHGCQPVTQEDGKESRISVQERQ

B1: Fab-7480 (Fab, V domains shown)
VH: QVQLVQSGAEVKKPGESLKISCKGSGYSFSTYWISWVRQMPGKGLEWMGKIYPGDSYTNYSPSFQGQVTISADKSISTAYLQWSSLKASDTAMYYCARGYGIFDYWGQGTLVTVSS
VL: DIELTQPPSVSVAPGQTARISCSGDNIGDQYAHWYQQKPGQAPVVVIYQDKNRPSGIPERFSGSNSGNTATLTISGTQAEDEADYYCATYTGFGSLAVFGGGTKLTVL
**Q.** Which EC50 [1] does the source give for B1 here?
**A.** 0.7 nM

**Q.** And the EC50 (human 4-1BB on cells [2])?
**A.** 0.9 nM

**Q.** And the Kd [3]?
**A.** 0.5 nM

**Q.** And the Kd [4]?
**A.** 0.046 nM

B2: MOR-7480 (IgG1) (antibody, V domains shown)
VH: QVQLVQSGAEVKKPGESLKISCKGSGYSFSTYWISWVRQMPGKGLEWMGKIYPGDSYTNYSPSFQGQVTISADKSISTAYLQWSSLKASDTAMYYCARGYGIFDYWGQGTLVTVSS
VL: DIELTQPPSVSVAPGQTARISCSGDNIGDQYAHWYQQKPGQAPVVVIYQDKNRPSGIPERFSGSNSGNTATLTISGTQAEDEADYYCATYTGFGSLAVFGGGTKLTVL
notes: Human IgG1 format, lambda light chain
**Q.** What does the source list for B2?
**A.** fold selectivity for 4-1BB versus OX-40 and CD40 (human 4-1BB on cells [5]): ≥ 100 fold; fold decrease in binding against human 4-1BB (Hu41BB N&E.5 [6]): > 5 fold; binding result (CD40 on 300.19 cells): no binding (tested: 1000 nM); binding result (OX-40 on 300.19 cells): no binding (tested: 1000 nM); EC50 [7]: 0.076 nM; EC50 [8]: 0.7 nM; EC50 (human 4-1BB on cells [9]): 0.6 nM; binding result (Hu41BB N&E): binds; binding result (Hu41BB N&E.1): binds; binding result (Hu41BB N&E.2): binds; binding result (Hu41BB N&E.3): binds; binding result (Hu41BB N&E.4): binds; binding result (Hu41BB N&E.6): binds; Kd [10]: 0.42 nM; koff [10]: 0.00015 s⁻¹; kon [10]: 360000 M⁻¹ s⁻¹; t1/2 [10]: 1.37 h; % max inhibition [11]: 96%; IC50 [11]: 0.122 nM; EC50 (human 4-1BB on cells [12]): 1.68 nM; EC50 (Hu41BB N&E.5 [13]): 12.3 nM
